According to patent US20190248902A1 (published 2019):
Positions count from the first letter of the chain named.

Key:
[1] = molecular target: T1, human ASGR-1 carbohydrate binding domain (CBD) (148-291) (human, UniProt P07306 148-291); experiment: X-ray crystal structure of the complex, 2.1 A
T1 construct: also called ASGR-1 CBD; ASGR-1 CRD
T1 sequence: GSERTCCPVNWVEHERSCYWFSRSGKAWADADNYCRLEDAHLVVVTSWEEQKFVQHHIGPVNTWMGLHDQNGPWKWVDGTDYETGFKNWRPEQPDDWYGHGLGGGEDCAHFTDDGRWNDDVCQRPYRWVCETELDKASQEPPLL

[2] = molecular target: T2, Human ASGR-2 (human, UniProt P07307 1-311); experiment: FACS on transfected HEK 293 cells; Y = signal at least 2x irrelevant IgG
T2 construct: Expressed on HEK 293 cells; cDNA GenBank NM_080913.3; also called huASGR-2; hASGR-2
T2 sequence: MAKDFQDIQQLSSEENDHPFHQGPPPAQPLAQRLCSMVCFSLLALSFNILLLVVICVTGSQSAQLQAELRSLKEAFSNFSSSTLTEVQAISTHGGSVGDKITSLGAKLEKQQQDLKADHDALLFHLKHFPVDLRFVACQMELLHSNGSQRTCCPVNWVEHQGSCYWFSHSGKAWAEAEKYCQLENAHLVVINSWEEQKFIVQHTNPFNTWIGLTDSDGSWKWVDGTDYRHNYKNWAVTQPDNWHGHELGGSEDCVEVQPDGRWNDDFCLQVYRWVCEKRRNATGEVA
Description: Human ASGR-1-specific, ligand competing antibody samples were tested for binding to ASGR-1 from other species (cynomologus monkey ASGR-1, mouse ASGR-1, rat ASGR-1, dog ASGR-1, and pig ASGR-1) as well as to human ASGR-2 in FACS binding assays at normalized antibody concentrations. For cell-based assays, HEK 293 cells expressing the appropriate antigen of interest were mixed with antibody sample or controls, incubated for 1 hour at 4° C., and then washed twice. Cells with bound antibody were then incubated with Alexa Fluor® 647 IgG Fc fragment-specific detection antibody and 7-AAD viability stain for 15 minutes at 4° C., washed once and resuspended in FACS buffer. Samples were analyzed using a BD Accuri™ Flow Cytometer and an Intellicyt HyperCyt Autosampler. As a negative control, supernatants and controls were also screened against HEK 293 cells transfected with empty parental vector. […] For membrane-prep binding assays, ASGR-1 species specific membrane preps were used to coat LumAvidin® microspheres (beads) and tested for binding to selected hybridoma supernatants or controls. Briefly, ASGR-1 species specific membrane preps were incubated with streptavidin-coated LumAvidin® beads for 45 minutes in the dark at room temperature and washed twice. Beads were resuspeneded in FACS buffer containing Stabilguard®. […] Samples were analyzed using an Intellicyt iQue™ Screener Platform. […]

[3] = molecular target: T3, Mouse ASGR-1 (mouse, UniProt P34927 1-284); experiment: FACS on transfected HEK 293 cells or membrane preps on beads; binding = signal at least 2x irrelevant IgG
T3 construct: Expressed on HEK 293 cells or as membrane prep on beads; cDNA GenBank BC022106.1; also called muASGR-1; mASGR-1
T3 sequence: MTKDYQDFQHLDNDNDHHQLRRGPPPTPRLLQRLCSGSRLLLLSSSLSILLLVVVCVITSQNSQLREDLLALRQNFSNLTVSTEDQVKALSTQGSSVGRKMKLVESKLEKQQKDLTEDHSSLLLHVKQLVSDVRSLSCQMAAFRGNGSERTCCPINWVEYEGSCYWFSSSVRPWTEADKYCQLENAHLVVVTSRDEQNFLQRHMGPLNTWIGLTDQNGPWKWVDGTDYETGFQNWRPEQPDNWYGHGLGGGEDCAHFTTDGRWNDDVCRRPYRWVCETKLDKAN
Description: (§1) Human ASGR-1-specific, ligand competing antibody samples were tested for binding to ASGR-1 from other species (cynomologus monkey ASGR-1, mouse ASGR-1, rat ASGR-1, dog ASGR-1, and pig ASGR-1) as well as to human ASGR-2 in FACS binding assays at normalized antibody concentrations. For cell-based assays, HEK 293 cells expressing the appropriate antigen of interest were mixed with antibody sample or controls, incubated for 1 hour at 4° C., and then washed twice. Cells with bound antibody were then incubated with Alexa Fluor® 647 IgG Fc fragment-specific detection antibody and 7-AAD viability stain for 15 minutes at 4° C., washed once and resuspended in FACS buffer. Samples were analyzed using a BD Accuri™ Flow Cytometer and an Intellicyt HyperCyt Autosampler. As a negative control, supernatants and controls were also screened against HEK 293 cells transfected with empty parental vector. […] For membrane-prep binding assays, ASGR-1 species specific membrane preps were used to coat LumAvidin® microspheres (beads) and tested for binding to selected hybridoma supernatants or controls. Briefly, ASGR-1 species specific membrane preps were incubated with streptavidin-coated LumAvidin® beads for 45 minutes in the dark at room temperature and washed twice. Beads were resuspeneded in FACS buffer containing Stabilguard®. Antigen-bound beads were then incubated with normalized antibody sample for 1 hour in the dark at room temperature, washed twice, incubated with Alexa Fluor® 488 IgG Fc fragment-specific detection antibody for 15 minutes in the dark at room temperature, washed once and finally resuspended in FACS buffer. Samples were analyzed using an Intellicyt iQue™ Screener Platform. FACS buffer supplemented with 1 mM Calcium Chloride was used in all steps. As a negative control, supernatants and controls were also screened against a non-ASGR-1 antigen membrane prep coated on the LumAvidin® beads.

[4] = molecular target: T4, Soluble ASGR-1 (human, UniProt P07306 62-291, biotinylated); experiment: limited antigen binding assay; biotinylated soluble ASGR-1 coated at 2.5 ng/mL on LumAvidin beads, FACS
T4 construct: Soluble recombinant protein; also called recombinant, soluble ASGR-1 biotinylated protein
T4 sequence: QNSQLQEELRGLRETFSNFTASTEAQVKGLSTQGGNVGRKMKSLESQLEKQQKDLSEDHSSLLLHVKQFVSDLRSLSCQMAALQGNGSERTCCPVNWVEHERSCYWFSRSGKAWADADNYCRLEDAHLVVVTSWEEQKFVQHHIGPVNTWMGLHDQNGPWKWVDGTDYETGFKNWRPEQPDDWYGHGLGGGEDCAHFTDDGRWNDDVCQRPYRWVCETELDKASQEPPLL
Description: To assess antibody and antigen interaction strength (relative binding affinity), ASGR-1 specific, ligand competing antibody hybridoma supernatants were tested in a limiting antigen binding assay. Titrated amounts of recombinant, soluble ASGR-1 biotinylated protein was incubated with streptavidin-coated LumAvidin Beads® for 45 minutes in the dark at room temperature and washed twice. Beads were resuspeneded in FACS buffer containing Stabilguard® and 0.05% Sodium Azide. Antigen-bound beads were then incubated with normalized hybridoma supernatant sample or controls for 18 hours in the dark at room temperature, washed twice, incubated with Alexa Fluor® 488 IgG fragment-specific detection antibody for 15 minutes in the dark at room temperature, washed once and finally resuspended in FACS buffer. Samples were analyzed using an Intellicyt iQue™ Screener Platform. FACS buffer supplemented with 1 mM Calcium Chloride was used in all steps. […] In this assay method, the antibody binding signal correlates with antibody affinity. Antibody binding data for a representative antigen coating concentration that fell in the linear range of the instrument signal detection is shown in Table 7.2. The degree of antibody binding to the target (ASGR-1) correlates with the measured fluorescent intensity and thus allows a relative comparison of affinities across the panel.

[5] = molecular target: T5, Pig ASGR-1 (pig); experiment: FACS on transfected HEK 293 cells or membrane preps on beads; Y = signal at least 2x irrelevant IgG
T5 construct: Expressed on HEK 293 cells or as membrane prep on beads; cDNA GenBank NM_001244458
T5 chain: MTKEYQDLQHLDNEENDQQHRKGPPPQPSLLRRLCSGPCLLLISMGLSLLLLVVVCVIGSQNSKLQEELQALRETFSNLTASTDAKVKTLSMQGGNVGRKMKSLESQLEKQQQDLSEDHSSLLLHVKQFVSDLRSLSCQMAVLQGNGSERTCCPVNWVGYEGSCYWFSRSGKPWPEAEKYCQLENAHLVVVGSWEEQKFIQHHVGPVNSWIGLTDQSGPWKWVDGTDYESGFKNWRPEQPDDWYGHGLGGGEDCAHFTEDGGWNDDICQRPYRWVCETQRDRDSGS
Description: as §1

[6] = molecular target: T6, Dog ASGR-1 (dog); experiment: as above
T6 construct: Expressed on HEK 293 cells or as membrane prep on beads; cDNA GenBank XM_546579
T6 chain: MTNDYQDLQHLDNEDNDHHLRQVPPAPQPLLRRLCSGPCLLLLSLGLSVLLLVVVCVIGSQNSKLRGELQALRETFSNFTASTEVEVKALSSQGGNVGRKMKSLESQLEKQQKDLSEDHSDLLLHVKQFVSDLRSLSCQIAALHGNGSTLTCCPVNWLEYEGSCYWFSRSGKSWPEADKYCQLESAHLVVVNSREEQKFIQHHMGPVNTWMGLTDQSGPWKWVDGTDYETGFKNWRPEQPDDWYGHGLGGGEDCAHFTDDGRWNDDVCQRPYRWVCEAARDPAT
Description: as §1

[7] = molecular target: T7, Cyno ASGR-1 (cynomolgus monkey, UniProt P07306 1-291 (human entry)); experiment: as above
T7 construct: Expressed on HEK 293 cells or as membrane prep on beads; cDNA from XP_005582755; also called cynomologus monkey ASGR-1
T7 chain: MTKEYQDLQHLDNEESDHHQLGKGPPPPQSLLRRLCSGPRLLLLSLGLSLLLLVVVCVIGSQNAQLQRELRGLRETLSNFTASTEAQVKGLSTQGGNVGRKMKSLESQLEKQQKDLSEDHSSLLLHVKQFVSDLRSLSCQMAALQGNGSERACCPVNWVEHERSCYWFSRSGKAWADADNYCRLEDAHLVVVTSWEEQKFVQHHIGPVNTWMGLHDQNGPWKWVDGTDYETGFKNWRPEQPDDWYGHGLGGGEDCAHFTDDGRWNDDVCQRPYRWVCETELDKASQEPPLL
Description: as §1

[8] = molecular target: T1, human ASGR-1 carbohydrate binding …; experiment: X-ray crystal structure, legend of FIG. 25
[9] = molecular target: T1, human ASGR-1 carbohydrate binding …; experiment: X-ray crystal structure of the complex, 2.6 A
Excerpt: 2. The dataset was collected from a single crystal on beamline ID22 at the Argonne National Laboratory and processed with XDS/CCP4;
4. The 194C10 Fab/ASGR-1 CBD complex structure was solved by molecular replacement with the program Phaser; and […]

[10] = molecular target: T8, human ASGR-1 (full length, expressed on cells) (human, UniProt P07306 1-291); experiment: flow cytometry; biotinylated ligand on CHO-S cells stably expressing ASGR-1, detected with streptavidin-AF647
T8 construct: single point mutants were made in the CBD in the context of full-length ASGR-1; also called hASGR-1; huASGR-1
T8 sequence: T7 chain with G22R, S30P, R33Q, A64S, R68E, L77F, A152T

B1: 22G5 Fab (Fab, V domains shown)
VH: EVQLLESGGGLVQPGGSLRLSCAASGFTFSSYAMNWVRQAPGMGLEWVSVISRSGGYTYYADSVKGRFTISRDNSKNTLYLQMNSLRAEDTAVYYCASRLAVAGSEAFDIWGQGTLVTVSS
VL: DIQMTQSPSSLSASVGDRVTITCRASQNISSYLNWYQQKQGKAPKLLIYAASSLQNGVPSRFSGRGSGTDFTLTISSLQPEDFATYYCQQSYRTPLFTFGPGTKVDFK
modifications: N-acetylglucosamine (NAG100) is listed among the light chain boundary residues
notes: Made by cleaving the 22G5-IgG4 mAb with papain; also called Fab fragment of 22G5
B1: binds [1].

B2: 7F4 (antibody, V domains shown)
VH: QLQLQESGPGLVKPSETLSLTCTVSGGSISRSSYYWGWIRQPPGKGLEWIGNIYYSGATYYNPSLKSRVTISVDTSTNQFSLKLSSVTAADTAVYYCARHSGSWSLDYWGQGTLVTVSS
VL: DIQMTQSPSSLSASVGDRVTITCRTSQGIRNDLGWYQQKPGKAPKRLIYAASNLQSGVPSRFSGSGSGTEFTLTISSLQPEDFATYYCLQHSAYPLTFGGGTKVEIK
notes: Tested as hybridoma supernatant at normalized concentration
In the case of B2, the binding result [2] is reported as “binds”, the binding result [3] is reported as “no binding” and the “FACS Geomean” value [4] is reported as 4910 FACS Geomean. B2: binds [5]; binds [6]; binds [7].

B3: 4A2 Fab (Fab, V domains shown)
VH: QVQLVQSGTEVKKPGASVKVSCKASGYTFTNYDINWVRQATGQGLEWMGWMHPNSGNTGYAQKFQGRVTLTRDTSISTAYMELSSLRSEDTAVYYCASSSGWYYFDYWGQGTLVTVSS
VL: DIVMTQSPDSLAVSLGERATINCKSSQSILHSSNNNNYLAWFQQKPGQPPKLLLYWASTRESGVPDRFSGSGSGTDFTLTISSLQPEDVAVYYCQQYYNTPVTFGPGTKVGIKR
notes: Expressed directly as a Fab, with a double stop codon at the end of the CH1 domain; also called Fab fragment of 4A2
B3: binds [8].

B4: 194C10 Fab (Fab, V domains shown)
VH: QVQLQQWGAGLLKPSETLSLTCAVSGGSFRYYYWSWIRQPPGKGLEWFGEINHAGSTNYNPSLKSRVTISIDTSKNQFSLKLRSVTAADTAVYYCARDYGAFDIWGQGTMVTVSS
VL: EIVLTQSPGTLSLSPGERATLSCRASPSVNSGYLAWYQQKPGQTPRLLIFGASSRATGIPDRFSASGSGADFTLTISRLEPEDFAVYFCQQYESSPWTFGQGTKVEIKR
notes: also called Fab fragment of 194C10
B4: binds [9].

B5: desialylated, biotinylated asialofetuin (bovine fetuin, AHSG) (ligand, UniProt P12763 19-359, looked up)
chain: IPLDPVAGYKEPACDDPDTEQAALAAVDYINKHLPRGYKHTLNQIDSVKVWPRRPTGEVYDIEIDTLETTCHVLDPTPLANCSVRQQTQHAVEGDCDIHVLKQDGQFSVLFTKCDSSPDSAEDVRKLCPDCPLLAPLNDSRVVHAVEVALATFNAESNGSYLQLVEISRAQFVPLPVSVSVEFAVAATDCIAKEVVDPTKCNLLAEKQYGFCKGSVIQKALGGEDVRVTCTLFQTQPVIPQPQPDGAEAEAPSAVPDAAGPTPSAAGPPVASVVVGPSVVAVPLPLHRAHYDLRHTFSGVASVESSSGEAFHVGKTPIVGQPSIPGGPVRLCPGRIRYFKI
modifications: desialated with C. perfringens and A. ureafaciens neuraminidases; biotinylated with Innolink Biotin 354S
notes: also called bn-asialofetuin; protein ligand
B5 showed an EC50 [10] of 10.7 nM.
